Measured values from paper PMC11575137 (BMC Biology, 2024).

Target: biotinylated GTP-loaded KRAS (recombinant human KRAS loaded with GppCp) (human, UniProt P01116 1-189)
Experiment: BLI

Sequence of biotinylated GTP-loaded KRAS (recombinant human KRAS loaded with GppCp) (P01116 whole entry): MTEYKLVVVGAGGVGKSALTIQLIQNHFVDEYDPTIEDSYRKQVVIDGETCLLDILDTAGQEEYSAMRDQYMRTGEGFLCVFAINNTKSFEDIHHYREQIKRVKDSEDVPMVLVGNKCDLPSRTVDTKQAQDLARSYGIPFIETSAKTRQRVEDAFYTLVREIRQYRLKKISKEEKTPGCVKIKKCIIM

Binder	Kd [µM]
VIKVYSEDETSRALD [peptide_(GRB14)]	87
DVKVFSEDGTSKVVE [peptide_(GRB10)]	78
VVNVGGKTVK [peptide_(RAB4B)]	84
IVRVFLPNKQRTVVP [peptide_(BRAF)]	150
